From paper PMC6016464, “Folding and binding pathways of BH3-only proteins are encoded within their intrinsically disordered sequence, not templated by partner proteins” (The Journal of Biological Chemistry, 2018)
Where no end group is shown, it is not given here. The star is where a group is joined. TAMRA = 5-carboxytetramethylrhodamine, CN(C)c1ccc2c(-c3ccc(C(=O)*)cc3C(=O)[O-])c3ccc(=[N+](C)C)cc-3oc2c1

T1: MCL-1 (mouse, residues 152-308) (mouse)
T1 construct: remnant of thrombin cleavage at the N-terminus of MCL-1; MCL-1, mouse, residues 152-308, UniProt P97287; source: E. coli C41 pLysS, purified (Ni2+ agarose, thrombin cleavage, ion exchange, Superdex G75 gel filtration); not shown: His6, N-terminal, cleaved
T1 chain: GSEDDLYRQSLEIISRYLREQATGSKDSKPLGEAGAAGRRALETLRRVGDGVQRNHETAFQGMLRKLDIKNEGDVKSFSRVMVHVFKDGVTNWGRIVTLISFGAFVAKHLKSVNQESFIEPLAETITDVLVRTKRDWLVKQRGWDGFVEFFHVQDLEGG

T2: A1 protein (mouse, residues 1-152, P104K C113S, used as wild type) (mouse)
T2 sequence (Q07440 1-152 with P104K C113S, looked up): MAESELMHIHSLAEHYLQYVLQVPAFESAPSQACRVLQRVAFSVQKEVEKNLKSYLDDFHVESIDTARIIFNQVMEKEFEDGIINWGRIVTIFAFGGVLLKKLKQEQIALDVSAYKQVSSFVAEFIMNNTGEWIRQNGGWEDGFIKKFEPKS

B1: BID L90A peptide, TAMRA-labelled (peptide, UniProt P70444 76-110, looked up)
chain: {TAMRA}-SESQEEIIHNIARHAAQIGDEMDHNIQPTLVRQLA
notes: BID, mouse, residues 76-110, UniProt P70444; source: synthetic peptide (Biomatik)
B2: BID E81A peptide, TAMRA-labelled (peptide, UniProt P70444 76-110, looked up)
chain: {TAMRA}-SESQEAIIHNIARHLAQIGDEMDHNIQPTLVRQLA
notes: as for B1
B3: BID E81G peptide, TAMRA-labelled (peptide, UniProt P70444 76-110, looked up)
chain: {TAMRA}-SESQEGIIHNIARHLAQIGDEMDHNIQPTLVRQLA
notes: as for B1
B4: BID I83A peptide, TAMRA-labelled (peptide, UniProt P70444 76-110, looked up)
chain: {TAMRA}-SESQEEIAHNIARHLAQIGDEMDHNIQPTLVRQLA
notes: as for B1
B5: BID I101A peptide, TAMRA-labelled (peptide, UniProt P70444 76-110, looked up)
chain: {TAMRA}-SESQEEIIHNIARHLAQIGDEMDHNAQPTLVRQLA
notes: as for B1
B6: PUMA (A139G A150G) peptide (on the M144A wild type), TAMRA-labelled (peptide, UniProt Q99ML1 127-161, looked up)
chain: {TAMRA}-RVEEEEWAREIGGQLRRAADDLNGQYERRRQEEQH
notes: PUMA, mouse, residues 127-161, UniProt Q99ML1; Double mutant; also called A150G (A139G); source: synthetic peptide (Biomatik)
B7: BID peptide (mouse, residues 76-110), N-terminal TAMRA (peptide, UniProt P70444 76-110, looked up)
peptide: {TAMRA}-SESQEEIIHNIARHLAQIGDEMDHNIQPTLVRQLA
notes: BID, mouse, residues 76-110, UniProt P70444; source: synthetic peptide (synthesized by Biomatik)

Target: T1, MCL-1 (mouse, residues 152-308)
Test: fluorescence polarisation; equilibrium binding by fluorescence anisotropy of the TAMRA-labelled peptide against partner protein concentration; anisotropy adjusted for the change in fluorescence intensity; 25 °C; 50 mM sodium phosphate, 0.05% (v/v) Tween 20, pH 7.0
Conditions: both partners purified
In the case of B1, the Kd is reported as 1200 nM.

Target: T1, MCL-1 (mouse, residues 152-308)
Test: stopped-flow fluorescence kinetics + other: fluorescence dissociation kinetics with competitor; Kd calculated as the ratio koff/kon of the kinetic rate constants; 25 °C; 50 mM sodium phosphate, 0.05% (v/v) Tween 20, pH 7.0
Conditions: both partners purified
With B2 the Kd was 0.55 nM.
B3 was tested, and the Kd was 1.6 nM.
B1 showed a Kd of 610 nM.
Binder B4 has a Kd of 1.7 nM.
Work on B5 yielded a Kd of 0.3 nM.

These binders were tested against T2, A1 protein (mouse, residues 1-152, P104K C113S, used as wild type) (mouse) (assay: fluorescence dissociation kinetics with competitor; dissociation; preformed complex of TAMRA-labelled peptide and partner protein mixed with excess unlabeled PUMA peptide as competitor; stopped-flow or Cary Eclipse spectrophotometer; 25 °C; 50 mM sodium phosphate, 0.05% (v/v) Tween 20, pH …). Conditions: not given.
In the case of B2, the koff is reported as 0.000213 s⁻¹.
In the case of B3, the koff is reported as 0.000454 s⁻¹.
Binder B4 has a koff of 0.002 s⁻¹.
B5 showed a koff of 0.0002 s⁻¹.

Target: T1, MCL-1 (mouse, residues 152-308)
Test: fluorescence dissociation kinetics with competitor; dissociation; preformed complex of TAMRA-labelled peptide and partner protein mixed with excess unlabeled PUMA peptide as competitor; stopped-flow or Cary Eclipse spectrophotometer; 25 °C; 50 mM sodium phosphate, 0.05% (v/v) Tween 20, pH 7.0
Conditions: both partners purified
Procedure, shortened: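 The dissociation rate constant (koff) was found by displacing TAMRA-labelled peptide from its preformed complex with mouse MCL-1 (residues 152–308) using a range of unlabelled competitor peptide concentrations. Experiments were run at 25 °C in 50 mM sodium phosphate, 0.05% (v/v) Tween 20, pH 7.0, on a stopped-flow instrument when kobs was above 0.03 s^−1 and on a Cary Eclipse when kobs was below 0.03 s^−1. Each fluorescence trace was fit to a single exponential, and once competitor was in sufficient excess, the kobs values that no longer depended on concentration were averaged to give koff.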
B2 was tested, and the koff was 0.0036 s⁻¹.
Binder B3 has a koff of 0.008 s⁻¹.
B1 was tested, and the koff was 1.3 s⁻¹.
B4 gave a koff of 0.014 s⁻¹.
Binder B5 has a koff of 0.0025 s⁻¹.

Target: T1, MCL-1 (mouse, residues 152-308)
Test: other fluorescence titration; equilibrium binding curve of TAMRA-labelled peptide, fluorescence (A.U.) against MCL-1 concentration; 50 mM sodium phosphate, 0.05% (v/v) Tween 20, pH 7.0
Conditions: both partners purified
With B6 the Kd was 1.7 ± 0.2 nM.

Target: T2, A1 protein (mouse, residues 1-152, P104K C113S, used as wild type) (mouse)
Test: fluorescence dissociation kinetics with competitor; dissociation; preformed complex of TAMRA-labelled peptide and partner protein mixed with excess unlabeled PUMA peptide as competitor; stopped-flow or Cary Eclipse spectrophotometer; 25 °C; 50 mM sodium phosphate, 0.05% (v/v) Tween 20, pH …
Conditions: not given
Remark: another data set of the same source
{TAMRA}-RVEEEEWAREIGAQARRAADDLNAQYERRRQEEQH [PUMA L141A peptide (on the M144A wild type), TAMRA-labelled] showed a koff of 1.23 s⁻¹.
{TAMRA}-RVEEEEWAREIGAQLRRAADDANAQYERRRQEEQH [PUMA L148A peptide (on the M144A wild type), TAMRA-labelled] was tested, and the koff was 0.0348 s⁻¹.
In the case of B1, the koff is reported as 0.66 s⁻¹.
Work on B6 yielded a koff of 0.0039 s⁻¹.

What follows are binders tested against T3, MCL-1 (mouse, residues 152-308) (mouse, UniProt P97287 152-308) (assay: dissociation kinetics by competition (fluorescence); preformed complex of TAMRA peptide and partner protein mixed with various concentrations of unlabeled PUMA peptide as competitor; stopped-flow or spectrophotometer; 25 °C; 50 mM sodium phosphate, 0.05% (v/v) Tween 20, pH 7.0). Conditions: both partners purified.
T3 construct: MCL-1, mouse, residues 152-308, UniProt P97287; source: recombinantly produced, purified (protocol in the supplemental Experimental Procedures)
B7: binds.

These binders were tested against T2, A1 protein (mouse, residues 1-152, P104K C113S, used as wild type) (mouse) (assay: fluorescence polarisation; equilibrium binding by fluorescence anisotropy of the TAMRA-labelled peptide against partner protein concentration; anisotropy adjusted for the change in fluorescence intensity; 25 °C; 50 mM sodium phosphate, 0.05% (v/v) Tween 20, pH 7.0). Conditions: not given.
For {TAMRA}-RVEEEEWAREIGAQARRAADDLNAQYERRRQEEQH [PUMA L141A peptide (on the M144A wild type), TAMRA-labelled], the Kd was 710 nM.
In the case of {TAMRA}-RVEEEEWAREIGAQLRRAADDANAQYERRRQEEQH [PUMA L148A peptide (on the M144A wild type), TAMRA-labelled], the Kd is reported as 5.65 nM.
B1 gave a Kd of 360 nM.

What follows are binders tested against T2, A1 protein (mouse, residues 1-152, P104K C113S, used as wild type) (mouse) (assay: stopped-flow fluorescence kinetics + other: fluorescence dissociation kinetics with competitor; Kd calculated as the ratio koff/kon of the kinetic rate constants; 25 °C; 50 mM sodium phosphate, 0.05% (v/v) Tween 20, pH 7.0). Conditions: not given.
For {TAMRA}-RVEEEEWAREIGAQARRAADDLNAQYERRRQEEQH [PUMA L141A peptide (on the M144A wild type), TAMRA-labelled], the Kd was 735 nM.
{TAMRA}-RVEEEEWAREIGAQLRRAADDANAQYERRRQEEQH [PUMA L148A peptide (on the M144A wild type), TAMRA-labelled] gave a Kd of 7.1 nM.
Work on B2 yielded a Kd of 0.02 nM.
In the case of B3, the Kd is reported as 0.047 nM.
B1 showed a Kd of 210 nM.
B4 was tested, and the Kd was 0.29 nM.
For B5, the Kd was 0.022 nM.
For B6, the Kd was 1.4 nM.

The binders below were run against T2, A1 protein (mouse, residues 1-152, P104K C113S, used as wild type) (mouse) (assay: stopped-flow fluorescence kinetics; association; TAMRA-labelled peptide with folded partner at least 10-fold higher (pseudo-first-order); kon from the gradient of kobs versus partner concentration; 25 °C; 50 mM sodium phosphate, 0.05% (v/v) Tween 20, pH 7.0). Conditions: not given.
Binder B2 has a kon of 1.07e+07 M⁻¹ s⁻¹.
B3 was tested, and the kon was 9.6e+06 M⁻¹ s⁻¹.
In the case of B4, the kon is reported as 7e+06 M⁻¹ s⁻¹.
B5 showed a kon of 8.6e+06 M⁻¹ s⁻¹.

Target: T2, A1 protein (mouse, residues 1-152, P104K C113S, used as wild type) (mouse)
Test: as above
Conditions: not given
Remark: another data set of the same source
With {TAMRA}-RVEEEEWAREIGAQARRAADDLNAQYERRRQEEQH [PUMA L141A peptide (on the M144A wild type), TAMRA-labelled] the kon was 1.67e+06 M⁻¹ s⁻¹.
With {TAMRA}-RVEEEEWAREIGAQLRRAADDANAQYERRRQEEQH [PUMA L148A peptide (on the M144A wild type), TAMRA-labelled] the kon was 4.9e+06 M⁻¹ s⁻¹.
For B1, the kon was 3.1e+06 M⁻¹ s⁻¹.
B6 was tested, and the kon was 2.78e+06 M⁻¹ s⁻¹.

Target: T1, MCL-1 (mouse, residues 152-308)
Test: stopped-flow fluorescence kinetics; association; TAMRA-labelled peptide with folded partner at least 10-fold higher (pseudo-first-order); kon from the gradient of kobs versus partner concentration; 25 °C; 50 mM sodium phosphate, 0.05% (v/v) Tween 20, pH 7.0
Conditions: both partners purified
Procedure, shortened: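 TAMRA-labelled peptide was mixed with mouse MCL-1 (residues 152–308) by stopped-flow in 50 mM sodium phosphate, 0.05% (v/v) Tween 20, pH 7.0, at 25 °C, with the partner at least 10-fold in excess. Fluorescence was excited at 555 nm and collected above 570 nm. At least 15 traces were averaged, points before the 1 ms deadtime were discarded, and single-exponential fits yielded kobs. The association rate constant (kon) is the slope of kobs plotted against partner concentration.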
B2 showed a kon of 6.5e+06 M⁻¹ s⁻¹.
B3 showed a kon of 4.8e+06 M⁻¹ s⁻¹.
For B1, the kon was 2.1e+06 M⁻¹ s⁻¹.
Binder B4 has a kon of 8.6e+06 M⁻¹ s⁻¹.
B5 was tested, and the kon was 8.2e+06 M⁻¹ s⁻¹.
